From publication doi:10.1101/2020.06.30.176701 (bioRxiv, 2020)
Read-outs that look alike come from different tables or passages of the source.

T1: archaeal ribosomal P-stalk complex aP0•(aP1•aP1)3 (Pyrococcus horikoshii, UniProt O74109 1-342; O57705 1-108)
T1 sequence (looked up) 1: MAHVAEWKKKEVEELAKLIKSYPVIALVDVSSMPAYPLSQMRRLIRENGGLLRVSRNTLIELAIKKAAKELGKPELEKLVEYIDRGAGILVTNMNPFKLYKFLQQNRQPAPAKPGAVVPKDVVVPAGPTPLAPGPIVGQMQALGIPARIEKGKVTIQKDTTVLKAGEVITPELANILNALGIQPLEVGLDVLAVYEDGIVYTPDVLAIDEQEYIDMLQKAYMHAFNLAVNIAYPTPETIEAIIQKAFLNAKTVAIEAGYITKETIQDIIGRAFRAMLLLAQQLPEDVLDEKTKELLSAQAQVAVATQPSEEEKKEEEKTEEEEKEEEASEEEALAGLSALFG
T1 sequence (looked up) 2: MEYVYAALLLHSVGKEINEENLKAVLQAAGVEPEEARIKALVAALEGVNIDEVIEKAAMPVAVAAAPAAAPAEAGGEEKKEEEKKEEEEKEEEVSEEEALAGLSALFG


Experiments:
Test in all cases: high-speed atomic force microscopy
[1] = target: T1, archaeal ribosomal P-stalk complex …
[2] = target: T1, archaeal ribosomal P-stalk complex …; remark: listed apart in the source
[3] = target: T1, archaeal ribosomal P-stalk complex …; remark: listed apart in the source
[4] = target: T1, archaeal ribosomal P-stalk complex …; remark: listed apart in the source
[5] = target: T1, archaeal ribosomal P-stalk complex …; remark: listed apart in the source

| fold distribution near the P-stalk relative to the opposite control area [1] [fold] | fold distribution near the P-stalk relative to the opposite control area [2] [fold] | fold distribution near the P-stalk relative to the opposite control area [3] [fold] | fold distribution near the P-stalk relative to the opposite control area [4] [fold] | stoichiometry N [5] | Binder |
| --- | --- | --- | --- | --- | --- |
| 2.6 | 4.2 | – | – | – | archaeal elongation factor 1A (aEF1A) of Pyrococcus furiosus (natural protein, UniProt Q8U152 1-428, looked up) MPKDKPHVNIVFIGHVDHGKSTTIGRLLYDTGNIPEQIIKKFEEMGEKGKSFKFAWVMDRLKEERERGITIDVAHTKFETPHRYITIIDAPGHRDFVKNMITGASQADAAVLVVAATDGVMPQTKEHAFLARTLGIKHIIVAINKMDMVNYNQKRFEEVKAQVEKLLKMLGYKDFPVIPISAWEGENVVKKSDKMPWYNGPTLIEALDQIPEPEKPVDKPLRIPIQDVYSIKGVGTVPVGRVETGKLRVGEVVIFEPASTIFHKPIQGEVKSIEMHHEPLEEALPGDNIGFNVRGVSKNDIKRGDVAGHTTNPPTVVRTKDTFKAQIIVLNHPTAITVGYSPVLHAHTAQVPVRFEQLLAKLDPKTGNIVEENPQFIKTGDAAIVILRPMKPVVLEPVKEIPQLGRFAIRDMGMTIAAGMVISIQRGE |
| – | – | ~4.3 | 6.6 | ≤ 7 aEF2 molecules per P-stalk | archaeal elongation factor 2 (aEF2) of Pyrococcus furiosus (natural protein, UniProt P61877 1-732, looked up) MGRREEMIAKIKELMLQPERIRNIGIAAHIDHGKTTLSDNLLAGAGMISEELAGKQLVLDFDEQEQARGITINAANVSMVHNYEGKDYLINLIDTPGHVDFGGDVTRAMRAIDGVIIVVDAVEGVMPQTETVVRQALREYVKPVLFINKVDRLIRELKLTPQQMMERFSKIIMDVNRLIQRYAPEEYKKKWMVRVEDGSVAFGSAYYNWALSVPFMQRTGVKFNEIIDLTLKGDNKTLRQRAPLHVVVLDMVVRHLPSPIEAQKYRIPHLWQGDINSKIGQAMLNCDPKGKMVMVITKIIIDKHAGEVATGRVWSGTVRSGQEVYLINSKRKGRIQQVGIYMGPERINMEAVPAGNIVAVTGLRDAMAGETVAEEQIEPFEALHYVSEPVVTVAIEAKNVKDLPRLIEALRQLAKEDPTLHVKIDEETGQHLLSGMGELHLEVKLYKLQKDWGIEVDVSEPIVVYRESITKPSPIVEGKSPNKHNRFYVVVEPMPDEIYQAIKEGIIPEGRVKDPKAVAKKLAELGMDYDIARGVVDIYNGNMFLDNTKGIQYLNEVMDLLIDGFHQAMDEGPLAKEPVMKVIVRLVDAQVHEDNVHRGPAQIYPAIRTAIHCAMMKAGPVLYEPYQKVIINIPYEYMGAVSREISQRRGQLIDMRQEGEVMTIIAEAPVAEMFGFAGAIRSATSGRALWSTEHAGFKRVPNELAQQIIRQIRQRKGLDPNPPTEKDVCPLF |
